We go through four molecules from US20180244779A1 (KADMON, published 2018).

The target of one assay is T1, hPD-1-Fc (human, UniProt Q15116 25-167, limits assumed).
T1 construct: It was immobilized on the ELISA plate; also called soluble human PD-1-Fc; not shown: Fc part
The experiment in a line: dose-response ELISA, immobilized hPD-1-Fc. Here is the method:
(§1) The binding activity of the five antibodies was examined using dose-response ELISA. The serially diluted antibodies were added to immobilized hPD-1-Fc and detected by HRP conjugated anti-hIgG Fab specific antibody. The OD450 reading was plotted vs. log antibody concentration using GraphPad Prism6. EC50 was calculated by using “dose-response” (stimulation) variable slope (four parameters)” program. The antibodies were also added to immobilized mPD-1-Fc and other Fc-fusions to determine specificity for hPD-1-Fc and to immobilized anti-human IgG fc specific antibody (anti-hFc Ab) to check the accuracy of the concentration measurement.
For orientation: An ELISA detects its analyte on a solid surface through an enzyme-linked reagent.

The next assay deals with T2, mPD-1-Fc (murine, UniProt Q02242 25-167, limits assumed).
T2 construct: also called murine PD-1; not shown: Fc part
T2 sequence (looked up): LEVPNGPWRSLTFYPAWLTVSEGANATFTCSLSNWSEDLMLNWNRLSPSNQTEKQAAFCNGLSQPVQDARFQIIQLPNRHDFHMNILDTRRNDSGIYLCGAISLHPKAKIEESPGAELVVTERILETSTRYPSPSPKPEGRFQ
Kind of assay: dose-response ELISA, immobilized mPD-1-Fc. On the procedure: as §1

T1 sequence (Q15116 25-167 limits assumed): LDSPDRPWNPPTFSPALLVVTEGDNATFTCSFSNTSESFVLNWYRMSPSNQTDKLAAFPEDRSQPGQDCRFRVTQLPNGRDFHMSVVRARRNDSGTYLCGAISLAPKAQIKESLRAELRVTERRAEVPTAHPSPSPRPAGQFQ

B1: R4B3 (antibody, V domains shown)
VH: EVQLLESGGGLVQPGGSLRLSCAASGFTFSYYWMSWVRQAPGKGLEWVSYISPSGGMTKYADSVKGRFTISRDNSKNTLYLQMNSLRAEDTAVYYCASASYDYVWGIYHYDVFDIWGQGTMVTVSS
VL: DIQMTQSPSSVSASVGDRVTITCRASQGISSWLAWYQQKPGKAPKLLIYAASSLQSGVPSRFSGSGSGTDFTLTISSLQPEDFATYYCQQANSFPLTFGGGTKVEIKR
In the case of B1, the binding result in the assay with hPD-1-Fc and in the assay with mPD-1-Fc was “binds” in each case.

B2: R3D6 (antibody, V domains shown)
VH: EVQLLESGGGLVQPGGSLRLSCAASGFTFSDYNMAWVRQAPGKGLEWVSSIGPSGGNTHYADSVKGRFTISRDNSKNTLYLQMNSLRAEDMAVYYCARERVEYYYYGMDVWGKGTTVTVSS
VL: QSALTQAPSVSVAPGQTARITCGGDNIESLSVHWYQQKPGQAPVLVVYDDADRPSGTPERFSGSNSGNTATLTINRAEAGDEADYYCQVWDYSSDVVVFGGGTTLTVLG
As to B2, the binding result with hPD-1-Fc is “binds”.

B3: R3A1 (antibody, V domains shown)
VH: EVQLLESGGGLVQPGGSLRLSCAASGFTFSRYHMMWVRQAPGKGLEWVSSIYPSGGYTYYADSVKGRFTISRDNSKNTLYLQMNSLRAEDTAVYYCAREYFSGPDYWGQGTLVTVSS
VL: DIQMTQSPSTLSASVGDRVTITCRASQKISRWLAWYQQTPGKAPKLLIYRASDLESGVPSRFSGSGSGTEFTLTISSLQPDDFATYYCQQYNTYPYTFGQGTKLEIKR
On to B3, for which the binding result with hPD-1-Fc was “binds”.

B4: R3A2 (antibody, V domains shown)
VH: EVQLLESGGGLVQPGGSLRLSCAASGFTFSWYSMLWVRQAPGKGLEWVSRIYPSGGFTYYADSVKGRFTISRDNSKNTLYLQMNSLRAEDTAVYYCARVIDIVGATGRLQHGMDVWGQGTTVTVSS
VL: QYELTQPPSVSVAPGQTAKITCGGNNIGSKSVNWYQQKTGQAPVLVVHDDSDRPSGIPERLSGSNSGNTATLTISRAEAGDEADYYCQVWDSVSDHYVFGTGTKVTVLG
Turning to B4, the binding result in the assay with hPD-1-Fc is on record as “binds”.
